Usually Kd stands for a measure of binding affinity in units of concentration. Usually koff stands for the rate constant with which the complex falls apart. As a reminder, the kon is the second-order rate constant of association.

We go through three molecules from patent publication US20260241018A1 (BIOCYTOGEN PHARMACEUTICALS BEIJING, published 2026).

The target of test [1] is T1, 5T4 on NCI-H226 cells, NCI-H2030 cells and HCC827 cells (UniProt Q13641 32-420, limits assumed).
T1 construct: whole, on cells
T1 sequence (looked up): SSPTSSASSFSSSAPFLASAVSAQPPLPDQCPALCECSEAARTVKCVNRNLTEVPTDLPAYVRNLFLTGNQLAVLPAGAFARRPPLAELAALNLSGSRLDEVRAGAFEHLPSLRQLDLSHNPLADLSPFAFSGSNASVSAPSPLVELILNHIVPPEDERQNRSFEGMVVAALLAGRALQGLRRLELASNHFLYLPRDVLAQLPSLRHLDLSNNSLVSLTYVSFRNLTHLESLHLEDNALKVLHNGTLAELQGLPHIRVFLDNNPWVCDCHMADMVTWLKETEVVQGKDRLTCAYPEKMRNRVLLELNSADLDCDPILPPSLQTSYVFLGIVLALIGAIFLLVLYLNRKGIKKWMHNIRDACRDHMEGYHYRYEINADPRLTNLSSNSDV
In words: flow cytometry on NCI-H226 cells, Alexa Fluor 647 anti-human IgG Fc secondary antibody, MFI. The method, then: NCI-H226 cells, NCI-H2030 cells or HCC827 cells were plated in a 96-well plate at a density of 2×10⁵ cells/well. Serially diluted purified anti-5T4 antibody 32G1 or the positive control PF06263507 analog-SI (maximum concentration: 20 μg/mL, 2-fold dilutions, 12 gradients) were added to each well and were incubated at 4° C. for 30 minutes. Then, after one wash with PBS, the cells were incubated with the secondary antibody Alexa Fluor® 647 anti human IgG Fcγ (Jackson ImmunoResearch Laboratories, Inc., Cat #: 109-606-170) at 4° C. for 15 minutes before flow cytometry analysis.
The cells were collected, and the mean fluorescence intensity (MFI) was determined.
For orientation: A flow cytometer gives signals particle by particle.

Test [2] deals with T2, h5T4-His protein (human, UniProt Q13641 32-355, limits assumed).
T2 construct: also called His-tagged human 5T4 protein; not shown: His tag
T2 sequence (looked up): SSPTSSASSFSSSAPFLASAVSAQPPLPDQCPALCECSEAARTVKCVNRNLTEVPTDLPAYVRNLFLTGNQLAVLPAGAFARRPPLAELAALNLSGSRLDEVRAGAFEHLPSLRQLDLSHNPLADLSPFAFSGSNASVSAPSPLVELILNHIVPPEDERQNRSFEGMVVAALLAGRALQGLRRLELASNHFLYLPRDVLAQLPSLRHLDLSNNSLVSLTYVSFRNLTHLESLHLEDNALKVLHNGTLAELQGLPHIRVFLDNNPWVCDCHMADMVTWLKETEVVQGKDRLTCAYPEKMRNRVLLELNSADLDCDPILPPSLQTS
The test can be described thus: epitope binding assay, h5T4-His captured; binder = analyte 2; competitor (analyte 1): 35B12. The method, then: (§1) Epitope binding assays were performed using ForteBio Octet system to determine whether two anti-5T4 antibodies target the same or overlapping epitopes. 1×HBS-EP+buffer (10 mM 4-(2-hydroxyethyl)-1-piperazineethanesulfonic acid (HEPES), 150 mM NaCl, 3 mM ethylenediaminetetraacetic acid (EDTA) and 0.05% P20, pH7.4) diluted from HBS-EP+buffer (10×) was used as the running buffer throughout the experiment. About 50 RU of h5T4-His protein was captured at a flow rate of 10 μL/min, and 200 nM of the tested antibody was injected at a flow rate of 30 μL/min to bind the ligand. Another comparison antibody was injected under the same conditions to determine whether the binding of different antibodies interfered with each other. The binding time was 180 s for each antibody.
(§2) The binding value of each antibody was obtained using Data Analysis HT 12.0. To quantify the interference of one antibody binding to another, a binding ratio was calculated to compare each pair of antibodies. The binding ratio is defined as the binding value of the second antibody (analyte 2), divided by the binding value of the first antibody (analyte 1). […] In general, antibody pairs that interfere with each other have the same or overlapping epitopes.

Test [3] addresses T2, h5T4-His protein. The test can be described thus: epitope binding assay, h5T4-His captured; binder = analyte 2; competitor (analyte 1): 32G8. The method, then:
as §1, §2

Test [4] concerns the target T3, human 5T4 expressed on CHO-S cells (CHO-h5T4 cells) (human, UniProt Q13641 32-355).
T3 sequence: T2 sequence (looked up)
The test can be described thus: flow cytometry, CHO-h5T4 cells. The method, then: (§3) CHO-h5T4 cells, CHO-m5T4 cells, CHO-fas5T4 cells or CHO-d5T4 cells were transferred to a 96-well plate at a density of 2×10⁵ cells/well respectively. The anti-5T4 antibodies were added to the 96-well plate, and incubated at 4° C. for 30 min. Then, the cells were incubated with the secondary antibody anti-hlgG-Fc-Alex Flour 647 (RL1-H) (Jackson ImmunoResearch Laboratories, Inc., Cat #: 109-606-170) at 4° C. in the dark for 15 minutes before flow cytometry analysis.

For test [5], the target named is T4, monkey (Macaca fascicularis) 5T4 expressed on CHO-S cells (CHO-fas5T4 cells) (monkey (Macaca fascicularis), UniProt Q4R8Y9 35-355).
T4 construct: also called monkey 5T4
T4 sequence: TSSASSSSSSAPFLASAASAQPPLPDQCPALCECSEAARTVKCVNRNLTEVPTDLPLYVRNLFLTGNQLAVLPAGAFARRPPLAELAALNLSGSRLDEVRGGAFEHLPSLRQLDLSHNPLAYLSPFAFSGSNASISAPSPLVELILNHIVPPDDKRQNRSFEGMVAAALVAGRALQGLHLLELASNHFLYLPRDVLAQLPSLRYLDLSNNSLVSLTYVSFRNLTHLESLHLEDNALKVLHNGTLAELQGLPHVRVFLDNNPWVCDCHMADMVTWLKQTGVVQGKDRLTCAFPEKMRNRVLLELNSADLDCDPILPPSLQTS
In words: flow cytometry, CHO-fas5T4 cells. The method, then:
as §3

The target of test [6] is T5, mouse 5T4 expressed on CHO-S cells (CHO-m5T4 cells) (mouse, UniProt Q9Z0L0 32-361).
T5 sequence: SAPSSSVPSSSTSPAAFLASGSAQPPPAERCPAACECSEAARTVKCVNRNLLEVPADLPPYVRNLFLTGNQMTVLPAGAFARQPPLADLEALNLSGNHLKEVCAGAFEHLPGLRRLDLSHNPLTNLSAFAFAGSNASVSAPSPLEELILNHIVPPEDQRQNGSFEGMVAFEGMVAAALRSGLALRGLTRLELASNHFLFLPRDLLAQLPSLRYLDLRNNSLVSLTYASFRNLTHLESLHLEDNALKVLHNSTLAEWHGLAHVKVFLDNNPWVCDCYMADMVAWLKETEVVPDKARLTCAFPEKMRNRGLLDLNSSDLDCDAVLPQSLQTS
In words: flow cytometry, CHO-m5T4 cells. The method, then:
as §3

Test [7] addresses T2, h5T4-His protein. In words: epitope binding assay, h5T4-His captured; binder = analyte 2; competitor (analyte 1): 32G1. The method, then: as §1, §2
Test [8] concerns the target T6, dog 5T4 expressed on CHO-S cells (CHO-d5T4 cells) (dog).
T6 chain: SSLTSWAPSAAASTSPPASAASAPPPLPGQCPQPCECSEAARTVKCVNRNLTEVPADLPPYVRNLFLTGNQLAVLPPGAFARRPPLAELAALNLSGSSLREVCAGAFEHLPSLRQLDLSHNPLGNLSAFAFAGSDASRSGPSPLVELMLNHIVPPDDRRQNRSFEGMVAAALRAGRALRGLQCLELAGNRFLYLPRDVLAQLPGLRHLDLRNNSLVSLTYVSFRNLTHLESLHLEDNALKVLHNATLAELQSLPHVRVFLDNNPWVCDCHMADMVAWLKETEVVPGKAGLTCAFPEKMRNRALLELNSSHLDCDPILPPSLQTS
In words: flow cytometry, CHO-d5T4 cells. The method, then: as §3

Test [9] deals with T7, His-tagged 5T4 protein of human (h5T4, ACRO Biosystems Inc., Cat #: TPG-H52E5) (human, UniProt Q13641 32-355).
T7 construct: Bought protein; not shown: His tag
T7 sequence (looked up): T2 sequence (looked up)
The test can be described thus: SPR (Biacore 8K), antibody captured on Protein A chip, His-tagged 5T4 as analyte. The method, then: (§4) Purified anti-5T4 antibodies were diluted to 2 μg/mL and then injected into the Biacore™ 8K biosensor at 10 μL/min for about 50 seconds to achieve a desired protein density (e.g., about 50 response units (RU)). His-tagged 5T4 protein at a concentration of 200 nM was then injected at 30 μL/min for 180 seconds. Dissociation was monitored for 400 seconds. The chip was regenerated after the last injection of each titration with Glycine (pH 2.0), 30 μL/min for 30 seconds. For ISO control, an antibody targeting an irrelevant target protein was used.
(§5) As a person of ordinary skill in the art would understand, the same method with appropriate adjustments for parameters (e.g., antibody concentration) was performed for each tested antibody.

For test [10], the target named is T8, His-tagged 5T4 protein of mouse (m5T4, ACRO Biosystems Inc., Cat #: TPG-M52H3) (mouse, UniProt Q9Z0L0 32-361, limits assumed).
T8 construct: Bought protein; not shown: His tag
T8 sequence (looked up): T5 sequence
Described as above. The method, then: as §4, §5

The target of test [11] is T9, His-tagged 5T4 protein of monkey (fas5T4, ACRO Biosystems Inc., Cat #: TPG-C52H3) (monkey, UniProt Q4R8Y9 35-355).
T9 construct: Bought protein
T9 sequence: T4 sequence
The description is as above. The method, then: as §4, §5

In test [12] the target is T2, h5T4-His protein. In words: epitope binding assay, h5T4-His captured; binder = analyte 2; competitor (analyte 1): 35C6. The method, then:
as §1, §2

The target in test [13] is T2, h5T4-His protein. In words: epitope binding assay, h5T4-His captured; binder = analyte 2; competitor (analyte 1): 32E3. The method, then:
as §1, §2

Test [14] has as its target T2, h5T4-His protein. The test can be described thus: epitope binding assay, h5T4-His captured; binder = analyte 2; competitor (analyte 1): 31G4. The method, then: as §1, §2

B1: PF06263507 analog-SI (antibody, V domains shown)
VH: EVQLVESGGGLVQPGGSLRLSCAASGYTFTNFGMNWVRQAPGKGLEWVAWINTNTGEPRYAEEFKGRFTISRDNAKNSLYLQMNSLRAEDTAVYYCARDWDGAYFFDYWGQGTLVTVSS
VL: DIQMTQSPSSLSASVGDRVTITCKASQSVSNDVAWYQQKPGKAPKLLIYFATNRYTGVPSRFSGSGYGTDFTLTISSLQPEDFATYYCQQDYSSPWTFGQGTKVEIK
notes: PF06263507 is a humanized IgG1 monoclonal antibody targeting 5T4; also called positive control PF06263507 analog-SI
B1: in test [1], the binding result is given as “binds”.

B2: 32G8 (antibody, V domains shown)
VH: QVQLQESGPGLLQPSETLSLTCFVSGASINSSGHYWGWIRQPPGKGLEWIGSIYFSGNTNYNPSLKSRVTIAVDTSKNQFSLKLSSVTAADTAVYYCVRRNGRYCSTISCYDDYWGQGTLVTVSS
VL: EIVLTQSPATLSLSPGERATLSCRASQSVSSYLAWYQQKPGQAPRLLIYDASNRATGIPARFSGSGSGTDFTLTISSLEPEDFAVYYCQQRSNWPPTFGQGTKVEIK
notes: also called anti-5T4 antibody 32G8
As for B2, the binding ratio amounted to 0.96 with h5T4-His protein [2]; 0.11 with h5T4-His protein [3]; 1.01 with h5T4-His protein [7]; 1.01 with h5T4-His protein [12]; 0.04 with h5T4-His protein [13]; 0.85 in the test with h5T4-His protein [14]. Further, the “Percentage of Positive Cells” value stood at 61.5% in test [4], 52.6% in test [5], 0.7% in test [6] and 62.8% in [8]. For the same molecule, the binding result is recorded as “no binding” in [6] and “no binding (tested: 200 nM)” in test [10]. For the same molecule, the Kd in test [9] was found to be 42.7 nM; in [11], 146 nM. Moreover, the koff stood at 0.00529 s⁻¹ in [9] and 0.0143 s⁻¹ in [11]. Also, the values for the kon in test [9] and in test [11] were 124000 M⁻¹ s⁻¹ and 98000 M⁻¹ s⁻¹, respectively.

B3: 35B12 (antibody, V domains shown)
VH: QVQLQESGPRLVKPSETLSLTCTVSGGSISSNDWSWIRQPPGKGLEWIGEISYSGITNYNPSLKSRVSISVETSKNHFSLNLSSVTAADTAVYYCATAGGSSGWYDYWFDPWGQGTLVTVSS
VL: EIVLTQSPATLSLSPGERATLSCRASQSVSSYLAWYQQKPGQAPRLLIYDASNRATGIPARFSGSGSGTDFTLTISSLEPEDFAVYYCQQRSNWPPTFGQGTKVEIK
notes: also called anti-5T4 antibody 35B12
For B3, the binding ratio with h5T4-His protein [2] turned out to be 0; with h5T4-His protein [3], 0.91; with h5T4-His protein [7], 0.05; with h5T4-His protein [12], 0.04; with h5T4-His protein [13], 0.97; with h5T4-His protein [14], 0.87. Moreover, the “Percentage of Positive Cells” value was 78% in [4], 52.1% in test [5], 54.1% in test [6] and 76% in test [8]. Further, the Kd is 122 nM in test [9], 72.2 nM in test [10] and 198 nM in [11]. Further, the koff in [9] turned out to be 0.0215 s⁻¹; in [10], 0.00366 s⁻¹; in test [11], 0.0219 s⁻¹. In addition, the kon stood at 176000 M⁻¹ s⁻¹ in test [9], 50700 M⁻¹ s⁻¹ in test [10] and 111000 M⁻¹ s⁻¹ in [11].
